Measurements: paper doi:10.1101/2023.12.11.571162, “Single molecule studies of the native hair cell mechanosensory transduction complex” (bioRxiv, 2023)

B1: recombinant protocadherin-15 (PCDH15), Mus musculus, His-tagged construct co-expressed with LHFPL5 (natural protein)
chain: not shown
notes: Synthesised by Genscript, cloned into pEG BacMam; also called recombinant PCDH15; His-tagged PCDH15; source: HEK293 tsa201 cells, BacMam co-infection with LHFPL5, purified as a complex (Strep-Tactin, TALON, SEC) in digitonin
B2: native protocadherin-15 (PCDH15) from mouse cochlea or utricle (natural protein)
chain: not shown
notes: protocadherin-15, mouse, endogenous in cochlea and utricle; also called native PCDH15; source: endogenous, cochlea or utricle of post-natal day 6 mice, detergent supernatant (1% C12M, 0.2% CHS)

What was measured:
[1] = target: the molecule itself; test: single molecule pull-down (SiMPull), photobleaching step counting; purified recombinant PCDH15/LHFPL5 complex captured by mAb 8D1; labelled in separate experiments with 39G7 Fab-GFP or anti-LHFPL5 Fab-GFP; bleaching steps counted
[2] = target: the molecule itself; test: single molecule pull-down (SiMPull), photobleaching step counting; native complexes from mouse cochlea supernatant captured by mAb 8D1; labelled with 39G7 Fab-GFP or anti-LHFPL5 Fab-GFP; bleaching steps counted

Row | Protein | stoichiometry N [1] | stoichiometry N [2]
1 | B1 | 2 | –
2 | B2 | – | 2
